Assay results reported in article PMC5897047.
Changes are numbered by the printed parent chain. Names may count otherwise.

B1: yeast non hypusine-containing eIF5A (eIF5A-Lys), wild type (natural protein)
chain: MSDEEHTFETADAGSSATYPMQCSALRKNGFVVIKSRPCKIVDMSTSKTGKHGHAKVHLVAIDIFTGKKLEDLSPSTHNMEVPVVKRNEYQLLDIDDGFLSLMNMDGDTKDDVKAPEGELGDSLQTAFDEGKDLMVTIISAMGEEAAISFKEAARTD
B2: yeast hypusine-containing eIF5A (eIF5A-Hyp), wild type (natural protein)
chain: B1 chain
modifications: hypusine at Lys51
B3: hypusine-containing eIF5A from mutant tif51A-4 (K86A/R87A/E89A) (natural protein)
chain: B1 chain with K86A, R87A, E89A
modifications: hypusine at Lys51
B4: non hypusine-containing eIF5A from mutant tif51A-4 (K86A/R87A/E89A) (natural protein)
chain: B1 chain with K86A, R87A, E89A

Molecular target: yeast 80S ribosome (S. cerevisiae (endogenous in yeast)) (UniProt P26321)
Assay: fluorescence polarisation

Sequence of UniProt P26321 (P26321 whole entry, looked up): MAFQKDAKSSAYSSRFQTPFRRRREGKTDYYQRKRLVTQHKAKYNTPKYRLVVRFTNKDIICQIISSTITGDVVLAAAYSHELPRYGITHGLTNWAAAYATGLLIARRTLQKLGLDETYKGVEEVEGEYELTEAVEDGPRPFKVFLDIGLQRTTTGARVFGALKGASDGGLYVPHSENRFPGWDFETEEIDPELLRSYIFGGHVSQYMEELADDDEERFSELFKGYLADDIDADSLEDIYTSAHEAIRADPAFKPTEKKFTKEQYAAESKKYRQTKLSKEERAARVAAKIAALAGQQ

Ki [nM]	Binder
238	B1
8	B2
171	B3
388	B4
